US20190389961A1 (INNATE PHARMA, published 2019)

Biological target: T1, cynomolgus (Macaca fascicularis) CD39 expressed on CHO cells (cynomolgus (Macaca fascicularis), UniProt A0A7N9DGH8 1-510)
T1 construct: whole, on cells; also called CHO-cyCD39; cyCD39
T1 sequence: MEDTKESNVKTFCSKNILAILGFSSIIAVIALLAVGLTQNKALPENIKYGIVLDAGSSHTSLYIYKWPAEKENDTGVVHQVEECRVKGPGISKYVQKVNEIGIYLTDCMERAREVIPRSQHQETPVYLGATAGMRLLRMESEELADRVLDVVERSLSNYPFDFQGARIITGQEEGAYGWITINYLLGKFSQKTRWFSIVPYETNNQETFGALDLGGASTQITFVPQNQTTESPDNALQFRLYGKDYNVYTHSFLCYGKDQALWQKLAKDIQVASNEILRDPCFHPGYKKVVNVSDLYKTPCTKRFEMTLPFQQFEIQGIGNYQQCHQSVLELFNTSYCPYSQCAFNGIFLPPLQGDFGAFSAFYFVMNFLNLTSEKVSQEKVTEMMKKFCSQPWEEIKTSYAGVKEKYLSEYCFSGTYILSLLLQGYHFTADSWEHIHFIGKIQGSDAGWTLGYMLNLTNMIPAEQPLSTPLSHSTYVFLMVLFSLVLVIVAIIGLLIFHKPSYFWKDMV
Experiment: flow cytometry titration on CHO-cyCD39 cells
Method: Cells were incubated with various concentration of unlabeled anti-CD39 antibody from 30 μg/ml to 5×10-⁴ μg/ml, for 30 minutes at 4° C. After washes, cells were incubated with Goat anti-mouse H+L labeled secondary antibody for 30 min at 4° C.

EC50 (read off the curve): ~0.4 µg/mL
B1: antibody I-394 (antibody, V domains shown)
VH: EVQLQQSGPELVKPGASVKMSCKASGYTFTDYNMHWVKQSHGRTLEWIGYIVPLNGGSTFNQKFKGRATLTVNTSSRTAYMELRSLTSEDSAAYYCARGGTRFAYWGQGTLVTVSA
VL: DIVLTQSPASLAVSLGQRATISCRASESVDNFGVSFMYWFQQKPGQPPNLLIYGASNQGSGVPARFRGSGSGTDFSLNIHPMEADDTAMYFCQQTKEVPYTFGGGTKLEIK
notes: Mouse variable regions; Produced in CHO with human IgG1 constant domains carrying L234A/L235E/G237A/A330S/P331S (Kabat EU numbering) and a human Ck constant domain
